Reference: US20240132587A1 (published 2024)

T1: rat CLDN18.2 (rat, UniProt Q5I0E5 1-261)
T1 chain: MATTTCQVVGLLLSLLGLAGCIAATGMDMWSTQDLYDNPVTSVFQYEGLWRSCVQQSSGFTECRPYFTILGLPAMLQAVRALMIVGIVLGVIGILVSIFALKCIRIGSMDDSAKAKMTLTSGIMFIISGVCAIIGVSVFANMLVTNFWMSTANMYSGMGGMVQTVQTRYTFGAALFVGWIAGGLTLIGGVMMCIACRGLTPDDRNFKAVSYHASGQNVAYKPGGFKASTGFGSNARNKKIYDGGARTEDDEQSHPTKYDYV

T2: mouse CLDN18.2 (mouse, UniProt P56857 1-264)
T2 chain: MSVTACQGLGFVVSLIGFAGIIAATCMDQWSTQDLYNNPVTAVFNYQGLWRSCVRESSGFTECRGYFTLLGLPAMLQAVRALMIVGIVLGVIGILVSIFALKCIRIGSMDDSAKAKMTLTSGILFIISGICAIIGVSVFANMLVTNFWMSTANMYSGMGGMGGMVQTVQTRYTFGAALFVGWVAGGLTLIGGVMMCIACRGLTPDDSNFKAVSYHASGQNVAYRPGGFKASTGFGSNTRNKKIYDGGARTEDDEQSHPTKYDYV


Columns and labels:
Test in all cases: flow cytometry, HEK293 cells
rat CLDN18.2 = target: T1, rat CLDN18.2
human CLDN18.2 = human CLDN18.2 (human, UniProt P56856 1-261)
mouse CLDN18.2 = target: T2, mouse CLDN18.2

Sequence of human CLDN18.2 (P56856 other isoform, or with tags, fused parts or gaps): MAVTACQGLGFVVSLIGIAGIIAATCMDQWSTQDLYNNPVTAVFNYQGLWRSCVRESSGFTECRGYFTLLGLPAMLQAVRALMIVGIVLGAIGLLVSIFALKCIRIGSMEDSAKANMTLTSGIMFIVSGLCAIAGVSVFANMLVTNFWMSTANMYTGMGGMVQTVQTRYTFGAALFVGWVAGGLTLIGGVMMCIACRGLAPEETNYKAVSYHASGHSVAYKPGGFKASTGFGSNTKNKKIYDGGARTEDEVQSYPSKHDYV

Binder	EC50 (rat CLDN18.2) [nM]	EC50 (human CLDN18.2) [nM]	EC50 (mouse CLDN18.2) [nM]
008LYG_D08 IgG1 (antibody, V domains shown) VH: QVQLVQSGAEVKKPGSSVKVSCKASGGTFSSYAISWVRQAPGQGLEWMGGIIPIFGTANYAQKFQGRVTITADESTSTAYMELSSLRSEDTAVYYCARGYQGMGVFDPWGQGTLVTVSS VL: not shown	99.1	92.6	81.3
008M0G_G03 IgG1 (antibody, V domains shown) VH: QVQLVQSGAEVKKPGSSVKVSCKASGGTFSSYAISWVRQAPGQGLEWMGGIIPIFGTANYAQKFQGRVTITADESTSTAYMELSSLRSEDTAVYYCARGYPRYGVFDYWGQGTLVTVSS VL: not shown	11.1	8.55	

Further binders by falling EC50 (human CLDN18.2), results first:

EC50 (rat CLDN18.2) [nM]	EC50 (human CLDN18.2) [nM]	EC50 (mouse CLDN18.2) [nM]	Binder
10.5	13.1		ZP1I18_B08 IgG1 (antibody, V domains shown) VH: QVQLVQSGAEVKKPGSSVKVSCKASGGTFSSYAISWVRQAPGQGLEWMGGIIPIFGTANYAQKFQGRVTITADESTSTAYMELSSLRSEDTAVYYCARGFIRYGVFDYWGQGTLVTVSS VL: not shown
	9.07		008LY1_D04 IgG1 (antibody, V domains shown) VH: QVQLVQSGAEVKKPGSSVKVSCKASGGTFSSYAISWVRQAPGQGLEWMGGIIPIFGTANYAQKFQGRVTITADESTSTAYMELSSLRSEDTAVYYCARGYVQYGYFDYWGQGTLVTVSS VL: not shown
11.8	7.89		ZP1I16_D05 IgG1 (antibody, V domains shown) VH: QVQLVQSGAEVKKPGSSVKVSCKASGGTFSSYAISWVRQAPGQGLEWMGGIIPIFGTANYAQKFQGRVTITADESTSTAYMELSSLRSEDTAVYYCARGFIRYGVFDYWGQGTLVTVSS VL: not shown
